Entries after “also recorded” stand apart in the source; their conditions may differ.
Assays:
[1] = cited from earlier work; for pH at which the peptide starts to undergo self-assembly: in solution
[2] = Determination of fibres eluting from matrix (TEM of artificially chewed toffee-saliva); assay type: physicochemical; conditions: toffee with assembled P11-4 (35 mg/ml), 3 mL artificial saliva, artificial chew 5 min
Description: Sample: • Place 1 toffee with or without assembled P11-4 (35 mg/ml) in artificial saliva 3 mL (cf. Example 2) • Artificial chew for 5 min in artificial mastication equipment. • Remove supernatant (saliva) Method TEM • Dilute sample (10 mg/mL) with H2O at a ratio of 1:63 • Place 1 μL of control solution on TEM-grid Sample • Place 20 μL of water on a parafilm • Place gently the TEM Grid with dark site facing upwards on the parafilm, close to the drop • Application of 10 μL sample on TEM carbon coated grids (hexagonal) • 10 min incubation • Remove unbound sample with a paper tissue • Put the grid into 3% Uranylacetate solution 20 ul • 40 sec incubation • Remove unbound Uranylacetate with a paper tissue • Wash the grid 2 times with distilled water • pipet 5 μL droplet on top of the grid and remove it • Dry it for 20 min at RT • Introduce sample into sample holder for TEM • Analyse @ 50 kV, Vacuum at least 9*10-6 hPa

In the case of “terminally modified P11-4: peptide P11-4 that is N-terminally acetylated and C-terminally amidated with a NH2-group (Ac-QQRFEWEFEQQ-NH2)”, the “pH at which the peptide starts to undergo self-assembly” value [1] is listed as “about 7.5”.
For “QQRFEWEFEQQ (self-assembling peptide P11-4)”, the “assembled fibres of peptide in artificial saliva after mastication (TEM)” value [2] is listed as “distinct fibre bundle; also recorded: maintains its assembled form”, the “pH at which the peptide starts to undergo self-assembly” value [1] is listed as “about 7.5” and the assembly state ([1]; ionic strength corresponding to 150 mM NaCl, neutral pH (Carrick et al., 2007)) is listed as “assembled”.

From patent publication US12721795B2, “Personal dental care product for preventing demineralisation” (CREDENTIS AG, priority 2019, dated 2026)
